T1: mouse IL-10Rα on splenocytes (mouse, UniProt Q61727 17-575)
T1 construct: whole, on cells
T1 sequence (looked up): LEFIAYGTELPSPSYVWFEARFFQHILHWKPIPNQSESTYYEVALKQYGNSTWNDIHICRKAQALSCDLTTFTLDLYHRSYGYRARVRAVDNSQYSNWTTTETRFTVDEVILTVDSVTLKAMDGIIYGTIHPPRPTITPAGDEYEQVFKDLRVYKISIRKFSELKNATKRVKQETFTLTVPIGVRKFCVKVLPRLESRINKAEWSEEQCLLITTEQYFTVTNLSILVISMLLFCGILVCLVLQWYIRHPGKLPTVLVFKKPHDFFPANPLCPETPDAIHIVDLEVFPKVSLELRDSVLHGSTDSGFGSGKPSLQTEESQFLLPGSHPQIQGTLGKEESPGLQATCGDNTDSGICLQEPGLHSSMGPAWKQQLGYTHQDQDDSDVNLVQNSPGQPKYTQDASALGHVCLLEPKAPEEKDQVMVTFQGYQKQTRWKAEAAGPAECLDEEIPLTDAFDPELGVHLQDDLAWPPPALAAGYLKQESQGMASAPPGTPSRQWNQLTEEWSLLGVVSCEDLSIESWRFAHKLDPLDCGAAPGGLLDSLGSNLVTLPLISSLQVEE

T2: cynomolgus macaque IL-10Rα on PBMC (cynomolgus macaque, UniProt Q13651 22-578 (human entry))
T2 construct: Full-length entry cloned from cynomolgus T cells; endogenous on primary PBMC in the assays; also called IL-10Rα on the surface of cynomolgus lymphocytes and monocytes
T2 chain: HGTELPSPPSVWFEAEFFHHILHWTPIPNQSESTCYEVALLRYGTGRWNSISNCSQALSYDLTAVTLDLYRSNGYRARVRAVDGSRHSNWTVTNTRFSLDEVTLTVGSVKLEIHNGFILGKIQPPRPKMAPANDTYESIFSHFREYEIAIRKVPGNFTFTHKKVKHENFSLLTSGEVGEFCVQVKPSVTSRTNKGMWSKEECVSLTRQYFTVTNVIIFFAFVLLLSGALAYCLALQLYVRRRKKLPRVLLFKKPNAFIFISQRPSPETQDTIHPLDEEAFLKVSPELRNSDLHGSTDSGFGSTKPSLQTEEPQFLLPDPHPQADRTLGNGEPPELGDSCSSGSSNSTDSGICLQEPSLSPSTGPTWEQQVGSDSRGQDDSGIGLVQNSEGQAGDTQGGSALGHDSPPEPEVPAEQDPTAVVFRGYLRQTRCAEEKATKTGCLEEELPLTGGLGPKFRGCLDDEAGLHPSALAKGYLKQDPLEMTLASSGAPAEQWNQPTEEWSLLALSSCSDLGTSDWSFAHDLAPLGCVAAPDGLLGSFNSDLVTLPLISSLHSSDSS

T3: Ac-YHSNGYRARVRA-NH2 (human)
T3 peptide: Ac-YHSNGYRARVRA-NH2

T4: Ac-TVTNTRFSVD-NH2 (human)
T4 peptide: Ac-TVTNTRFSVD-NH2

T5: Ac-SIFSHFREYE-NH2 (human)
T5 peptide: Ac-SIFSHFREYE-NH2

T6: Ac-GNFTFTHKKV-NH2 (human)
T6 peptide: Ac-GNFTFTHKKV-NH2

T7: Ac-SVASRSNKGM-NH2 (human)
T7 peptide: Ac-SVASRSNKGM-NH2

T8: Biotin-SGSTLDLYHSNGYRARVRAVDG-NH2 (human, N-terminal biotin, C-terminal amide (-NH2))
T8 peptide: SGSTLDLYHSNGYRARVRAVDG

T9: Biotin-SGSTYSIFSHFREYEIAIRKV-NH2 (human, N-terminal biotin, C-terminal amide (-NH2))
T9 peptide: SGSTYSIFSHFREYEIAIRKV

T10: human IL-10Rα on cells (human, UniProt Q13651 22-578)
T10 construct: Full-length entry with signal peptide; endogenous on PBMC and RPMI-8226 cells, transfected in EL-4 and CHO-K1 cells; also called IL-10R on RPMI-8226 cells; IL-10Rα on human PBMC, lymphocytes and monocytes
T10 sequence: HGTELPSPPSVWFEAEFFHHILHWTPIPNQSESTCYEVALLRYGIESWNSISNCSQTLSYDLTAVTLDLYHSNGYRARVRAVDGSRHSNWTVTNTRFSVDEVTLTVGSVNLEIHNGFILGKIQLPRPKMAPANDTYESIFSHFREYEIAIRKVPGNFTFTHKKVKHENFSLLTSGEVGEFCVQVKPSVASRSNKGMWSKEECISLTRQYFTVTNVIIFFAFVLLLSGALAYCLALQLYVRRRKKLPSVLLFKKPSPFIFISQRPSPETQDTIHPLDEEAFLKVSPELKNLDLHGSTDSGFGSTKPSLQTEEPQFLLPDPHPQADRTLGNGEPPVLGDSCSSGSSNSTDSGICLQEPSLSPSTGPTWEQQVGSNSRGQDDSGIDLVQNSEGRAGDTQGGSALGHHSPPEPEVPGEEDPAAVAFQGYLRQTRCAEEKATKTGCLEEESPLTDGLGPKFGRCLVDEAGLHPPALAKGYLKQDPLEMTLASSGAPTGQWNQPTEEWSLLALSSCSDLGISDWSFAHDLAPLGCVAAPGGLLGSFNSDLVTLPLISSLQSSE

B1: 136D29 (antibody, V domains shown)
VH: QVQLVQSGAEVKKPGASVKVSCKVSGFTLTELSMHWVRQAPGKGLEWMGGFDPDDGETIYAQKFQGRVSMTEDTSTDTAYMELSSLRSEDTAVYYCATGGYYGPVGMDVWGQGTTVTVSS
VL: DIQMTQSPSSLSASVGDRVTITCRASQGISIWLAWYQQKPEKAPKSLIYAASSLQSGVPSRFSGSGSGTDFTLTISSLQPEDFATYYCQQYNSYPLTFGGGTKVEIK
notes: Hybridoma antibody, human IgG4, kappa light chain #2 (the chain identified as correct); also called human anti-human IL-10Rα monoclonal antibody 136D29; 136D9 [sic]
B2: recombinant human IL-10 (ligand, UniProt P22301 19-178, looked up)
chain: SPGQGTQSENSCTHFPGNLPNMLRDLRDAFSRVKTFFQMKDQLDNLLLKESLLEDFKGYLGCQALSEMIQFYLEEVMPQAENQDPDIKAHVNSLGENLKTLRLRLRRCHRFLPCENKSKAVEQVKNAFNKLQEKGIYKAMSEFDIFINYIEAYMTMKIRN
notes: also called human IL-10 biotin

Assays:
[1] = biological target: T1, mouse IL-10Rα on splenocytes; experiment: flow cytometry on splenocytes
[2] = biological target: T2, cynomolgus macaque IL-10Rα on PBMC; experiment: flow cytometry on cynomolgus PBMC
[3] = biological target: T11, cynomolgus macaque IL-10Rα extracellular domain fused to the Fc portion of human IgG1 (cynomolgus macaque); experiment: ELISA, coated cynomolgus IL-10Rα:hFc
T11 construct: The entry includes the signal peptide; also called cynomolgus IL-10Rα:hFc; cyIL-10Rα
From the text: Titration of anti-IL-10Rα antibodies binding to coated chimp or cynomolgus IL-10Rα:hFc. Binding was detected with anti-human kappa-HRP, anti-mouse IgG-HRP, or anti-rat IgG-HRP. Different anti-rat-IgG HRP and anti-mouse IgG antibodies were used to generate the data in panels A and B. The nature of these secondary antibodies can affect the results and lead to different maximum binding (BMAX). The BMAX from these studies are described in Table 5.
IL-10Rα Specific Antibody Detection ELISA: Antibody titers, specificity, and production by hybridomas were determined by ELISA. In brief, 96 well flat bottom Maxisorb plates were coated with 50 μl of hIL-10Rα (R&D Systems, Minneapolis, Minn.) at 1 μg/ml in carbonate buffer (pH 9.4) overnight at 4° C. or at 37° C. for 1 hour. After washing three times with PBS/0.05% Tween 20, plates were blocked with Superblock blocking buffer in TBS (Pierce) at room temperature for 30 minutes. The serum, supernatant, or purified antibody was diluted in blocking buffer, added to the wells, and the plates were incubated for 1 hour at room temperature. The plates were washed 3 times with PBS/0.05% Tween 20 and peroxidase-conjugated goat anti-human IgG (Fcγ specific), anti-rat IgG, or anti-mouse IgG detection antibodies (Jackson Immunoresearch) were added at a dilution of 1:5000. Multiple lots of anti-rat and anti-mouse IgG antibodies were used in different assays. […] Following a 1 hour incubation at room temperature, the plates were washed and the TMB (Sigma) substrate was added and incubated at room temperature for 5 to 10 minutes. The reaction was stopped with H₂SO₄ (LabChem) and the optical density was measured at 450 nm by a microplate reader. A second ELISA protocol using soluble human, chimp and cynomolgus IL-10Rα:hFc recombinant proteins as the coating antigens was also employed. In this assay, binding of specific human IgG were detected with a peroxidase labeled sheep anti-human kappa antibody (The Binding Site, Birmingham, UK).

Ac-YHSNGYRARVRA-NH2 = biological target: T3, Ac-YHSNGYRARVRA-NH2; experiment: dot blot on PVDF or nitrocellulose membrane
Method: (§1) Methods to detect antibody binding to peptides derived from the human IL-10Rα sequence: Multiple methods were employed to detect binding of anti-human IL-10Rα antibodies to peptides derived from the extracellular domain of human IL-10Rα that have been reported by Reineke, et al. (Reineke, et al., Protein Sci 7:951 (1998)) to be included in the IL-10 binding site of the receptor. The following amide synthesized peptides were tested: Ac-[…]-NH2, Ac-[…]-NH2, Ac-[…]-NH2, Ac-[…]-NH2, Ac-[…]-NH2 (SEQ ID NO. 81-85). In addition, the following biotinylated peptides were tested: Biotin-[…]-NH2, Biotin-[…]-NH2 (SEQ ID NO. 86-87). The amide peptides were synthesized by A&A Labs, LLC (San Diego, Calif.) and the biotinylated peptides were synthesized by GenScript (Piscataway, N.J.) both at >95% purity and reconstituted at 20 mg/ml in DMSO. In one assay design peptides were spotted at 5 μg/spot in PBS onto PVDF membranes or nitrocellulose membranes that had been prepared according to the manufacturer's instructions. The membranes were incubated with anti-IL-10Rα antibodies using standard Western blotting methods (e.g. Towbin, et al., Proc Natl Acad Sci 76:4350 (1979)). Native human IL-10Ra:hFc and heat denatured human IL-10Ra:hFc were also spotted at 1 μg/spot on the membranes as controls. Negative controls included an irrelevant peptide and isotype controls. […] None of the antibodies bound to the spotted denatured protein or to any of the peptides derived from the human IL-10Ra extracellular domain or the irrelevant peptide.

Ac-TVTNTRFSVD-NH2 = biological target: T4, Ac-TVTNTRFSVD-NH2; experiment: dot blot on PVDF or nitrocellulose membrane
Method: as §1

Ac-SIFSHFREYE-NH2 = biological target: T5, Ac-SIFSHFREYE-NH2; experiment: dot blot on PVDF or nitrocellulose membrane
Method: as §1

Ac-GNFTFTHKKV-NH2 = biological target: T6, Ac-GNFTFTHKKV-NH2; experiment: dot blot on PVDF or nitrocellulose membrane
Method: as §1

Ac-SVASRSNKGM-NH2 = biological target: T7, Ac-SVASRSNKGM-NH2; experiment: dot blot on PVDF or nitrocellulose membrane
Method: as §1

[4] = biological target: T8, Biotin-SGSTLDLYHSNGYRARVRAVDG-NH2; experiment: dot blot on PVDF or nitrocellulose membrane
Method: as §1

[5] = biological target: T9, Biotin-SGSTYSIFSHFREYEIAIRKV-NH2; experiment: dot blot on PVDF or nitrocellulose membrane
Method: as §1

human IL-10Rα on cells = biological target: T10, human IL-10Rα on cells; experiment: flow cytometry on RPMI-8226 cells; biotinylated human IL-10, streptavidin-FITC [B]
From the text: RPMI-8226 cells were stained with human IL-10 biotin followed by anti-human IL-10Rα antibodies, and binding of antibodies was detected with anti-human IgG-PE or anti-rat IgG-PE. A) Filled histograms represent the maximum binding of the antibodies in the absence of IL-10, the open histograms are in the presence of human IL-10; B) Maximum IL-10 binding (closed histogram) is inhibited by anti-IL-10 (open histogram.) The shaded histogram represents binding of a negative control protein. Binding of IL-10 was detected with streptavidin-FITC.
IL-10 Blocking Assay: To determine if the anti-human IL-10Rα antibodies were blocked by binding of IL-10 to the receptor on the cell surface, a flow cytometric protocol was used. In the flow cytometric assay, RPMI-8226 cells were washed and resuspended in staining buffer and then incubated with biotinylated human IL-10 or a negative control protein (R&D Systems) for 30 minutes on ice. The anti-IL-10Rα antibodies were then added to the cells for an additional 30 minutes. […] After another wash, the cells were fixed with 1% paraformaldehyde and analyzed on a FACS Calibur. The fold reduction in antibody binding was determined using the geometric mean fluorescence intensity in the following formula: Fold reduction=geometric mean fluorescence intensity in the absence of IL-10/geometric mean fluorescence intensity binding in presence of IL-10.

binding result [1]	binding result [2]	BMAX [3] [OD]	binding result (Ac-YHSNGYRARVRA-NH2)	binding result (Ac-TVTNTRFSVD-NH2)	binding result (Ac-SIFSHFREYE-NH2)	binding result (Ac-GNFTFTHKKV-NH2)	binding result (Ac-SVASRSNKGM-NH2)	binding result [4]	binding result [5]	binding result (human IL-10Rα on cells)	Binder
no binding	binds	1.31	no binding (tested: 5 µg/spot)	no binding (tested: 5 µg/spot)	no binding (tested: 5 µg/spot)	no binding (tested: 5 µg/spot)	no binding (tested: 5 µg/spot)	no binding (tested: 5 µg/spot)	no binding (tested: 5 µg/spot)	–	B1
–	–	–	–	–	–	–	–	–	–	binds	B2
